For one substance, EC50 results are on record in patent US20250326840A1.

Assay [1] addresses PD-L1-his (QPP09) (human) (UniProt Q9NZQ7). Briefly: ELISA, PD-L1 captured by coated anti-HIS antibody.
In assay [2] the target is human PD-L1 on HCC827 cells (human) (UniProt Q9NZQ7). Briefly: FACS on HCC827 cells.
Chain of human PD-L1 on HCC827 cells (human) (Q9NZQ7 19-290): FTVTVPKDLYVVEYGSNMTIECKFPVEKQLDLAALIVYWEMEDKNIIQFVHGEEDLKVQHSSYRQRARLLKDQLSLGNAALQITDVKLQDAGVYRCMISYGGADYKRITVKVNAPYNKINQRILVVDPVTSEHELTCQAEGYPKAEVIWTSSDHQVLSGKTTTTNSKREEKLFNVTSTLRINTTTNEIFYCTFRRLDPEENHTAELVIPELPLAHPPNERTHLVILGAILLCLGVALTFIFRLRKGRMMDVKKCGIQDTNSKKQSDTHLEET

Chain of PD-L1-his (QPP09) (human) (Q9NZQ7 19-239 limits assumed): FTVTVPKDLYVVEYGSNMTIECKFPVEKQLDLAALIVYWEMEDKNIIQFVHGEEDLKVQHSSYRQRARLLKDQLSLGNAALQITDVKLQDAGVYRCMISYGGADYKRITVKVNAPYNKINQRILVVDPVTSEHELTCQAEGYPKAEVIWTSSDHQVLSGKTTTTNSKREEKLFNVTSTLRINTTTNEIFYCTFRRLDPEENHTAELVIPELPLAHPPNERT

Regarding Tecentriq (antibody), the EC50 turned out to be 91.9 pM in assay [1] and 109 pM in assay [2].
